Measured values reported in FireProtDB.
Where “and” joins values, the source holds several entries; their conditions need not be identical. Equal values may be shown once.

B1: E81Q, P95467 (parent)
chain: MKKALIASTALLLTAGVAAADVKISGYGRTGVIYYENDSDVNESRVQSRLRMNIDASSSTDSGVDFGARFRLQWDQGEEGEAQTNAGKLWVSAQGFTVEVGNVDTAFASNGLIYETGLGSYDRSVGFSAVTGAFFAYDSNGYGIDEVDRVGIRALYTLGDLTLQASYVDPDQSGTVIGVEEEFGFSVDYTWNERLELSAAAAFNGAGIDGNDIYFLGARYAVMDNARIGLNFVDAGDEEDGYDGKTIALYGDYTLADGRTNLEAYIANNDRDSNETDNAFGIGVNYDLGGARLGASLQRDYAENVTADFGVRFEF
B2: Cytochrome c2, P00094 (parent)
chain: MKISLTAATVAALVLAAPAFAGDAAKGEKEFNKCKTCHSIIAPDGTEIVKGAKTGPNLYGVVGRTAGTYPEFKYKDSIVALGASGFAWTEEDIATYVKDPGAFLKEKLDDKKAKTGMAFKLAKGGEDVAAYLASVVK
B3: Serine hydroxymethyltransferase, P0A825 (parent)
chain: MLKREMNIADYDAELWQAMEQEKVRQEEHIELIASENYTSPRVMQAQGSQLTNKYAEGYPGKRYYGGCEYVDIVEQLAIDRAKELFGADYANVQPHSGSQANFAVYTALLEPGDTVLGMNLAHGGHLTHGSPVNFSGKLYNIVPYGIDATGHIDYADLEKQAKEHKPKMIIGGFSAYSGVVDWAKMREIADSIGAYLFVDMAHVAGLVAAGVYPNPVPHAHVVTTTTHKTLAGPRGGLILAKGGSEELYKKLNSAVFPGGQGGPLMHVIAGKAVALKEAMEPEFKTYQQQVAKNAKAMVEVFLERGYKVVSGGTDNHLFLVDLVDKNLTGKEADAALGRANITVNKNSVPNDPKSPFVTSGIRVGTPAITRRGFKEAEAKELAGWMCDVLDSINDEAVIERIKGKVLDICARYPVYA
B4: Guanyl-specific ribonuclease Sa, P05798 (parent)
chain: DVSGTVCLSALPPEATDTLNLIASDGPFPYSQDGVVFQNRESVLPTQSYGYYHEYTVITPGARTRGTRRIITGEATQEDYYTGDHYATFSLIDQTC
B5: Pyrrolidone-carboxylate peptidase, O73944 (parent)
chain: MKVLVTGFEPFGGEKINPTERIAKDLDGIKIGDAQVFGRVLPVVFGKAKEVLEKTLEEIKPDIAIHVGLAPGRSAISIERIAVNAIDARIPDNEGKKIEDEPIVPGAPTAYFSTLPIKKIMKKLHERGIPAYISNSAGLYLCNYVMYLSLHHSATKGYPKMSGFIHVPYIPEQIIDKIGKGQVPPSMCYEMELEAVKVAIEVALEELL
B6: Gamma-crystallin D, P07320 (parent)
chain: MGKITLYEDRGFQGRHYECSSDHPNLQPYLSRCNSARVDSGCWMLYEQPNYSGLQYFLRRGDYADHQQWMGLSDSVRSCRLIPHSGSHRIRLYEREDYRGQMIEFTEDCSCLQDRFRFNEIHSLNVLEGSWVLYELSNYRGRQYLLMPGDYRRYQDWGATNARVGSLRRVIDFS
B7: Barstar, P11540 (parent)
chain: MKKAVINGEQIRSISDLHQTLKKELALPEYYGENLDALWDCLTGWVEYPLVLEWRQFEQSKQLTENGAESVLQVFREAKAEGCDITIILS
B8: Phenylalanine--tRNA ligase, mitochondrial, O95363 (parent)
chain: MVGSALRRGAHAYVYLVSKASHISRGHQHQAWGSRPPAAECATQRAPGSVVELLGKSYPQDDHSNLTRKVLTRVGRNLHNQQHHPLWLIKERVKEHFYKQYVGRFGTPLFSVYDNLSPVVTTWQNFDSLLIPADHPSRKKGDNYYLNRTHMLRAHTSAHQWDLLHAGLDAFLVVGDVYRRDQIDSQHYPIFHQLEAVRLFSKHELFAGIKDGESLQLFEQSSRSAHKQETHTMEAVKLVEFDLKQTLTRLMAHLFGDELEIRWVDCYFPFTHPSFEMEINFHGEWLEVLGCGVMEQQLVNSAGAQDRIGWAFGLGLERLAMILYDIPDIRLFWCEDERFLKQFCVSNINQKVKFQPLSKYPAVINDISFWLPSENYAENDFYDLVRTIGGDLVEKVDLIDKFVHPKTHKTSHCYRITYRHMERTLSQREVRHIHQALQEAAVQLLGVEGRF
B9: Lipase B, P41365 (parent)
chain: MKLLSLTGVAGVLATCVAATPLVKRLPSGSDPAFSQPKSVLDAGLTCQGASPSSVSKPILLVPGTGTTGPQSFDSNWIPLSTQLGYTPCWISPPPFMLNDTQVNTEYMVNAITALYAGSGNNKLPVLTWSQGGLVAQWGLTFFPSIRSKVDRLMAFAPDYKGTVLAGPLDALAVSAPSVWQQTTGSALTTALRNAGGLTQIVPTTNLYSATDEIVQPQVSNSPLDSSYLFNGKNVQAQAVCGPLFVIDHAGSLTSQFSYVVGRSALRSTTGQARSADYGITDCNPLPANDLTPEQKVAAAALLAPAAAAIVAGPKQNCEPDLMPYARPFAVGKRTCSGIVTP
B10: Lactose operon repressor, P03023 (parent)
chain: MKPVTLYDVAEYAGVSYQTVSRVVNQASHVSAKTREKVEAAMAELNYIPNRVAQQLAGKQSLLIGVATSSLALHAPSQIVAAIKSRADQLGASVVVSMVERSGVEACKAAVHNLLAQRVSGLIINYPLDDQDAIAVEAACTNVPALFLDVSDQTPINSIIFSHEDGTRLGVEHLVALGHQQIALLAGPLSSVSARLRLAGWHKYLTRNQIQPIAEREGDWSAMSGFQQTMQMLNEGIVPTAMLVANDQMALGAMRAITESGLRVGADISVVGYDDTEDSSCYIPPLTTIKQDFRLLGQTSVDRLLQLSQGQAVKGNQLLPVSLVKRKTTLAPNTQTASPRALADSLMQLARQVSRLESGQ
B11: Acylphosphatase-1, P41500 (parent)
chain: MSMAEGDTLISVDYEIFGKVQGVFFRKYTQAEGKKLGLVGWVQNTDQGTVQGQLQGPASKVRHMQEWLETKGSPKSHIDRASFHNEKVIVKLDYTDFQIVK
B12: Serine proteinase inhibitor IA-1, Q7M4T6 (parent)
chain: SAGKFIVIFKNDVSEDKIRETKDEVIAEGGTITNEYNMPGMKGFAGELTPQSLTKFQGLQGDLIDSIEEDGIVTTQ

Variants of: B1
Details: Paracoccus denitrificans; pH 8; Thermal; Absorbance; Tris-HCl 50 mM; NaCl 100 mM; reversible: no; whole UniProt chain shown

Variant | Tm | change of melting temperature, mutant - wild type (higher = more stable)
E81Q | 84.2 °C | -2 °C
E81Q D148N | 82.3 °C | -3.9 °C
W74C | 82.4 °C | -3.8 °C

Variants of: B2
Details: Rhodobacter capsulatus (strain ATCC BAA-309 / NBRC 16581 / SB1003); pH 7.5; 30 °C; GdnHCl; CD; Tris 20 mM; structure 1C2R; whole UniProt chain shown

Variant | denaturant midpoint (higher = more stable)
P56A | 0.9 M
G55S | 0.86 M

Variants of: B3
Details: Escherichia coli (strain K12); pH 7.5; 30 °C; Urea; Fluorescence; Tris-HCl 20 mM; transition: 3; structure 1DFO; whole UniProt chain shown

Variant | unfolding free energy
W183F W385F | 4.2 kcal/mol and 5.5 kcal/mol

Same assay, conditions: Escherichia coli (strain K12); pH 7.5; 30 °C; Urea; Fluorescence; Tris-HCl 20 mM; structure 1DFO; whole UniProt chain shown

Variant | unfolding free energy
W16Y | 3.7 kcal/mol
W385F | 4 kcal/mol
W16F W183F | 5.9 kcal/mol

Variants of: B4
Details: Kitasatospora aureofaciens; pH 7; 25 °C; Thermal; CD; MOPS 30 mM; structure 1RGG; whole UniProt chain shown

Variant | ddG of mutation (higher = less stable)
D25H | -0.9 kcal/mol
D17K | 1.1 kcal/mol
E74K | -1.1 kcal/mol
E41K | 1.2 kcal/mol

Variants of: B5
Details: Pyrococcus furiosus (strain ATCC 43587 / DSM 3638 / JCM 8422 / Vc1); pH 7; 60 °C; GdnHCl; CD; Tris-HCl 20 mM; reversible: yes; structure 1IOF; whole UniProt chain shown

Variant | denaturant m value | denaturant midpoint (higher = more stable) | unfolding free energy
C142S C188S | 4.16 kcal/mol/M | 3.4 M | 13.5 kcal/mol

Variants of: B6
Details: Homo sapiens; pH 7; Thermal; ANS fluorescence; PBS; transition: 2; reversible: yes; structure 1HK0; whole UniProt chain shown

Variant | Tm | change of melting temperature, mutant - wild type (higher = more stable)
G61C | 69.6 °C | -7 °C

Same assay, conditions: Homo sapiens; pH 7; Thermal; CD; PBS; transition: 2; reversible: yes; structure 1HK0; whole UniProt chain shown

Variant | Tm | change of melting temperature, mutant - wild type (higher = more stable)
G61C | 73.9 °C | -6.1 °C

Same assay, conditions: Homo sapiens; pH 7; Thermal; Fluorescence; PBS; transition: 2; reversible: yes; structure 1HK0; whole UniProt chain shown

Variant | Tm
G61C | 74.3 °C

Same assay, conditions: Homo sapiens; pH 7; Thermal; light scattering; PBS; transition: 2; reversible: yes; structure 1HK0; whole UniProt chain shown

Variant | Tm
G61C | 75.1 °C

Variants of: B7
Details: Bacillus amyloliquefaciens; pH 8; 10 °C; Urea; CD; Tris Cl 50 mM; KCl 100 mM; structure 1BTA; whole UniProt chain shown

Variant | ddG of mutation (higher = less stable) | unfolding free energy
I6V | 1 kcal/mol | 2 kcal/mol
L52V | 0.6 kcal/mol | 2.4 kcal/mol
L35V | 1.1 kcal/mol | 1.9 kcal/mol
L17V | 1.1 kcal/mol | 1.9 kcal/mol

Same assay, conditions: Bacillus amyloliquefaciens; pH 7; Thermal; CD; phosphate 20 mM; structure 1A19; whole UniProt chain shown

Variant | Tm
H18Q | 65 °C

Variants of: B8
Details: Homo sapiens; pH 7.5; 25 °C; Urea; CD; Tris-HCl 50 mM; transition: 2; structure 3CMQ; whole UniProt chain shown

Variant | ddG of mutation (higher = less stable) | denaturant midpoint (higher = more stable)
S57C N280S | 3.03 kcal/mol | 7.9 M
N280S | -0.51 kcal/mol | 5.7 M
S57C | -0.43 kcal/mol | 5.9 M

Variants of: B9
Details: Pseudozyma antarctica; pH 7; Thermal; CD; Tris-HCl 50 mM; reversible: No; structure 1TCA; whole UniProt chain shown

Variant | Tm | change of melting temperature, mutant - wild type (higher = more stable)
V235I | 58.5 °C | 0.8 °C
V235I A306E | 52.1 °C | -5.6 °C
V246D | 55.7 °C | -2 °C

Same assay, conditions: Pseudozyma antarctica; pH 7; Thermal; Differential Scanning Fluorimetry; HEPES 10mM; structure 1TCA; whole UniProt chain shown

Variant | Tm | change of melting temperature, mutant - wild type (higher = more stable)
Q181C L188C | 46.1 °C | -8.7 °C
N194C F329C | 56.3 °C | 1.5 °C
A187C K333C | 55.9 °C | 1.1 °C

Variants of: B10
Details: Escherichia coli (strain K12); pH 7.5; Urea; CD; Tris-HCl 0.01 M; K2SO4 0.1 M; reversible: yes (90%); structure 1LBI; whole UniProt chain shown

Variant | unfolding free energy
Y282D | 4.8 kcal/mol

Same assay, conditions: Escherichia coli (strain K12); pH 7.4; Thermal; CD; phosphate 5 mM; reversible: no; structure 1LBI; whole UniProt chain shown

Variant | Tm
K84L | 93 °C
K84M | 93 °C

Variants of: B11
Details: Bos taurus; pH 5.5; 25 °C; Thermal; CD; sodium acetate 5 mM; reversible: Yes; structure 2ACY; whole UniProt chain shown

Variant | ddG of mutation (higher = less stable)
K27E E66K N85K Q98K | -1.67 kcal/mol

Same assay, conditions: Bos taurus; pH 5.5; Thermal; CD; sodium acetate 5 mM; reversible: Yes; structure 2ACY; whole UniProt chain shown

Variant | change of melting temperature, mutant - wild type (higher = more stable)
K27E E66K N85K Q98K | 5.4 °C

Same assay, conditions: Bos taurus; pH 7; 25 °C; Thermal; DSC; sodium phosphate 50 mM; reversible: Yes; structure 2ACY; whole UniProt chain shown

Variant | ddG of mutation (higher = less stable)
K27E E66K N85K Q98K | -1.67 kcal/mol

Same assay, conditions: Bos taurus; pH 7; Thermal; DSC; sodium phosphate 50 mM; reversible: Yes; structure 2ACY; whole UniProt chain shown

Variant | change of melting temperature, mutant - wild type (higher = more stable)
K27E E66K N85K Q98K | 5.4 °C

Variants of: B12
Details: Pleurotus ostreatus; pH 7; Thermal; CD; sodium phosphate 50 mM; whole UniProt chain shown

Variant | Tm | change of melting temperature, mutant - wild type (higher = more stable)
F56A | 46 °C | -13 °C
